Laboratory results as given in patent publication US20230257470A1 (published 2023).

T1: human FcγRIIa type H (human, UniProt P12318 36-217)
T1 construct: also called FcyRIIaH; FcγRIIa(H)
T1 sequence: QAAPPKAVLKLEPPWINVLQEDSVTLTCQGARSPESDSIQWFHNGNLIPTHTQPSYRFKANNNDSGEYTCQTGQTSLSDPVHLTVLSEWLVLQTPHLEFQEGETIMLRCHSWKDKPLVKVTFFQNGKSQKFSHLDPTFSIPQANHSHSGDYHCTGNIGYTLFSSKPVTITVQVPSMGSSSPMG

T2: human FcγRIIb (human, UniProt P31994 43-217, limits assumed)
T2 construct: also called FcyRIfb; FcγIIB
T2 sequence: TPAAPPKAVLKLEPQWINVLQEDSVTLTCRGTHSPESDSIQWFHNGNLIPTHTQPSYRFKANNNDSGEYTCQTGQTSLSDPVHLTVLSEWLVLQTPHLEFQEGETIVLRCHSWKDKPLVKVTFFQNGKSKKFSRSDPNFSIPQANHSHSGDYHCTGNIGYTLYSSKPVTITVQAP


Columns and labels:
Experiment in all cases: SPR (Biacore), FcγR over captured antibody; binding amount relative to IL6R-BF648/IL6R-L x100
[1] = target: T3, human FcγRIa (human, UniProt P12314 16-292, limits assumed)
T3 construct: also called FcyRIa; CD64
T3 sequence (P12314 16-292 limits assumed): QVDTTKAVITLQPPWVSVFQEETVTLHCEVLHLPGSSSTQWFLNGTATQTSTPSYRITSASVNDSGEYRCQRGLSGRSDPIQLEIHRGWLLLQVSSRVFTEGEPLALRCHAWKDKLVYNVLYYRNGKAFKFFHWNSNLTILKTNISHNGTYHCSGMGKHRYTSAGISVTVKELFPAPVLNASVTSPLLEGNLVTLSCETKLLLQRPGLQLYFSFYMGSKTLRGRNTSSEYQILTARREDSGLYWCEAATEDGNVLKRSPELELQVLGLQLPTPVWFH

[2] = target: T1, human FcγRIIa type H
[3] = target: T2, human FcγRIIb
[4] = target: T4, human FcγRIIIa type V (human, UniProt P08637 17-208, limits assumed)
T4 construct: also called FcyRIIIa; FcγRIIIaV
T4 sequence (P08637 other isoform, or with tags, fused parts or gaps limits assumed): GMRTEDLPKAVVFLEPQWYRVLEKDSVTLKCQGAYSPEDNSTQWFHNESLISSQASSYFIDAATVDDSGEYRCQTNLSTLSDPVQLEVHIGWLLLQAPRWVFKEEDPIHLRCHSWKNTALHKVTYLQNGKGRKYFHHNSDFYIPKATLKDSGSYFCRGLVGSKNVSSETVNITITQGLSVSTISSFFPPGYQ

Row | Binder | relative binding [1] | relative binding [2] | relative binding [3] | relative binding [4]
1 | IL6R-BF648/IL6R-L (antibody, human IgG1, name in EU numbering, Alterations are those introduced into IL6R-B3) heavy: not shown light: DIQMTQSPSSLSASVGDRVTITCRASQDISSYLNWYQQKPGKAPKLLIYYTSRLHSGVPSRFSGSGSGTDFTFTISSLQPEDIATYYCQQGNTLPYTFGQGTKVEIK | 100 % of IL6R-BF648/IL6R-L | 100 % of IL6R-BF648/IL6R-L | 100 % of IL6R-BF648/IL6R-L | 100 % of IL6R-BF648/IL6R-L
2 | IL6R-BP112/IL6R-L (antibody, human IgG1, name in EU numbering) heavy: QVQLQESGPGLVKPSETLSLTCAVSGHSISHDHAWSWVRQPPGEGLEWIGFISYSGITNYNPSLQGRVTISRDNSKNTLYLQMNSLRAEDTAVYYCARSLARTTAMDYWGEGTLVTVSSASTKGPSVFPLAPSSKSTSGGTAALGCLVKDYFPEPVTVSWNSGALTSGVHTFPAVLQSSGLYSLSSVVTVPSSSLGTQTYICNVNHKPSNTKVDKKVEPKSCDKTHTCPPCPAPELLGGDSVFLFPPKPKDTLMISRTPEVTCVVVDVSHEDGEVKFNWYVDGVEVHNAKTKPREEQYNSTYRVVSVLTVLHQDWLNGKEYKCKVSNKALPAPIEKTISKAKGQPREPQVYTLPPSRDELTKNQVSLTCLVKGFYPSDIAVEWESNGQPENNYKTTPPVLDSDGSFFLYSKLTVDKSRWQQGNVFSCSVMHEALHNHYTQESLSLSP light: DIQMTQSPSSLSASVGDRVTITCRASQDISSYLNWYQQKPGKAPKLLIYYTSRLHSGVPSRFSGSGSGTDFTFTISSLQPEDIATYYCQQGNTLPYTFGQGTKVEIK | 119 % of IL6R-BF648/IL6R-L | 113 % of IL6R-BF648/IL6R-L | 157 % of IL6R-BF648/IL6R-L | –
3 | IL6R-BP912/IL6R-L (antibody, human IgG1, name in EU numbering) heavy: QVQLQESGPGLVKPSETLSLTCAVSGHSISHDHAWSWVRQPPGEGLEWIGFISYSGITNYNPSLQGRVTISRDNSKNTLYLQMNSLRAEDTAVYYCARSLARTTAMDYWGEGTLVTVSSASTKGPSVFPLAPSSKSTSGGTAALGCLVKDYFPEPVTVSWNSGALTSGVHTFPAVLQSSGLYSLSSVVTVPSSSLGTQTYICNVNHKPSNTKVDKKVEPKSCDKTHTCPPCPAPELLGGDSVFLFPPKPKDTLMISRTPEVTCVVVDVSHEDPEVKFNWYVDGVEVHNAKTKPREEQYNSTYRVVSVLTVLHQDWLNGKEYKCKVSNKALPRPIEKTISKAKGQPREPQVYTLPPSRDELTKNQVSLTCLVKGFYPSDIAVEWESNGQPENNYKTTPPVLDSDGSFFLYSKLTVDKSRWQQGNVFSCSVMHEALHNHYTQESLSLSP light: DIQMTQSPSSLSASVGDRVTITCRASQDISSYLNWYQQKPGKAPKLLIYYTSRLHSGVPSRFSGSGSGTDFTFTISSLQPEDIATYYCQQGNTLPYTFGQGTKVEIK | 60 % of IL6R-BF648/IL6R-L | 93 % of IL6R-BF648/IL6R-L | – | 97 % of IL6R-BF648/IL6R-L
4 | IL6R-2B002/IL6R-L (antibody, human IgG1, name in EU numbering) heavy: QVQLQESGPGLVKPSETLSLTCAVSGHSISHDHAWSWVRQPPGEGLEWIGFISYSGITNYNPSLQGRVTISRDNSKNTLYLQMNSLRAEDTAVYYCARSLARTTAMDYWGEGTLVTVSSASTKGPSVFPLAPSSKSTSGGTAALGCLVKDYFPEPVTVSWNSGALTSGVHTFPAVLQSSGLYSLSSVVTVPSSSLGTQTYICNVNHKPSNTKVDKKVEPKSCDKTHTCPPCPAPDLLGGDSVFLFPPKPKDTLMISRTPEVTCVVVDVSHEDPEVKFNWYVDGVEVHNAKTKPREEQYNSTYRVVSVLTVLHQDWLNGKEYKCKVSNKALPAPIEKTISKAKGQPREPQVYTLPPSRDELTKNQVSLTCLVKGFYPSDIAVEWESNGQPENNYKTTPPVLDSDGSFFLYSKLTVDKSRWQQGNVFSCSVMHEALHNHYTQESLSLSP light: DIQMTQSPSSLSASVGDRVTITCRASQDISSYLNWYQQKPGKAPKLLIYYTSRLHSGVPSRFSGSGSGTDFTFTISSLQPEDIATYYCQQGNTLPYTFGQGTKVEIK | 118 % of IL6R-BF648/IL6R-L | 147 % of IL6R-BF648/IL6R-L | 116 % of IL6R-BF648/IL6R-L | 147 % of IL6R-BF648/IL6R-L
5 | IL6R-BP120/IL6R-L (antibody, human IgG1, name in EU numbering) heavy: QVQLQESGPGLVKPSETLSLTCAVSGHSISHDHAWSWVRQPPGEGLEWIGFISYSGITNYNPSLQGRVTISRDNSKNTLYLQMNSLRAEDTAVYYCARSLARTTAMDYWGEGTLVTVSSASTKGPSVFPLAPSSKSTSGGTAALGCLVKDYFPEPVTVSWNSGALTSGVHTFPAVLQSSGLYSLSSVVTVPSSSLGTQTYICNVNHKPSNTKVDKKVEPKSCDKTHTCPPCPAPELLGGDSVFLFPPKPKDTLMISRTPEVTCVVVDVSHEDPEVKFNWYVDGVEVHNAKTKPREEQYNSTYRVVSVLTVLHQDWLNGKEYKCKVSNEALPAPIEKTISKAKGQPREPQVYTLPPSRDELTKNQVSLTCLVKGFYPSDIAVEWESNGQPENNYKTTPPVLDSDGSFFLYSKLTVDKSRWQQGNVFSCSVMHEALHNHYTQESLSLSP light: DIQMTQSPSSLSASVGDRVTITCRASQDISSYLNWYQQKPGKAPKLLIYYTSRLHSGVPSRFSGSGSGTDFTFTISSLQPEDIATYYCQQGNTLPYTFGQGTKVEIK | 125 % of IL6R-BF648/IL6R-L | – | 114 % of IL6R-BF648/IL6R-L | –
6 | IL6R-BP078/IL6R-L (antibody, human IgG1, name in EU numbering) heavy: QVQLQESGPGLVKPSETLSLTCAVSGHSISHDHAWSWVRQPPGEGLEWIGFISYSGITNYNPSLQGRVTISRDNSKNTLYLQMNSLRAEDTAVYYCARSLARTTAMDYWGEGTLVTVSSASTKGPSVFPLAPSSKSTSGGTAALGCLVKDYFPEPVTVSWNSGALTSGVHTFPAVLQSSGLYSLSSVVTVPSSSLGTQTYICNVNHKPSNTKVDKKVEPKSCDKTHTCPPCPAPELLGGDSVFLFPPKPKDTLMISRTPEVTCVVVDVSHEDPEVKFNWYVDGVEVHNAKTKPREEQYNSTYRVVSVLTVLHQDWLNGKEYKCKVSNKALPMPIEKTISKAKGQPREPQVYTLPPSRDELTKNQVSLTCLVKGFYPSDIAVEWESNGQPENNYKTTPPVLDSDGSFFLYSKLTVDKSRWQQGNVFSCSVMHEALHNHYTQESLSLSP light: DIQMTQSPSSLSASVGDRVTITCRASQDISSYLNWYQQKPGKAPKLLIYYTSRLHSGVPSRFSGSGSGTDFTFTISSLQPEDIATYYCQQGNTLPYTFGQGTKVEIK | 106 % of IL6R-BF648/IL6R-L | 89 % of IL6R-BF648/IL6R-L | – | 91 % of IL6R-BF648/IL6R-L
7 | IL6R-BP117/IL6R-L (antibody, human IgG1, name in EU numbering) heavy: QVQLQESGPGLVKPSETLSLTCAVSGHSISHDHAWSWVRQPPGEGLEWIGFISYSGITNYNPSLQGRVTISRDNSKNTLYLQMNSLRAEDTAVYYCARSLARTTAMDYWGEGTLVTVSSASTKGPSVFPLAPSSKSTSGGTAALGCLVKDYFPEPVTVSWNSGALTSGVHTFPAVLQSSGLYSLSSVVTVPSSSLGTQTYICNVNHKPSNTKVDKKVEPKSCDKTHTCPPCPAPELLGGDSVFLFPPKPKDTLMISRTPEVTCVVVDVSHEDPEVKFNWYVDGVEVHNAKTKPREEQYNSTYRVVSVLTVLHQDWLNGKEYKCKVSNDALPAPIEKTISKAKGQPREPQVYTLPPSRDELTKNQVSLTCLVKGFYPSDIAVEWESNGQPENNYKTTPPVLDSDGSFFLYSKLTVDKSRWQQGNVFSCSVMHEALHNHYTQESLSLSP light: DIQMTQSPSSLSASVGDRVTITCRASQDISSYLNWYQQKPGKAPKLLIYYTSRLHSGVPSRFSGSGSGTDFTFTISSLQPEDIATYYCQQGNTLPYTFGQGTKVEIK | 124 % of IL6R-BF648/IL6R-L | 96 % of IL6R-BF648/IL6R-L | 118 % of IL6R-BF648/IL6R-L | –
8 | IL6R-2B128/IL6R-L (antibody, human IgG1, name in EU numbering) heavy: QVQLQESGPGLVKPSETLSLTCAVSGHSISHDHAWSWVRQPPGEGLEWIGFISYSGITNYNPSLQGRVTISRDNSKNTLYLQMNSLRAEDTAVYYCARSLARTTAMDYWGEGTLVTVSSASTKGPSVFPLAPSSKSTSGGTAALGCLVKDYFPEPVTVSWNSGALTSGVHTFPAVLQSSGLYSLSSVVTVPSSSLGTQTYICNVNHKPSNTKVDKKVEPKSCDKTHTCPPCPAPELLGGDSVFLFPPKPKDTLMISRTPEVTCVVVDVSHEDPEVKFNWYVDGVEVHNAKTKPREEQDNSTYRVVSVLTVLHQDWLNGKEYKCKVSNKALPAPIEKTISKAKGQPREPQVYTLPPSRDELTKNQVSLTCLVKGFYPSDIAVEWESNGQPENNYKTTPPVLDSDGSFFLYSKLTVDKSRWQQGNVFSCSVMHEALHNHYTQESLSLSP light: DIQMTQSPSSLSASVGDRVTITCRASQDISSYLNWYQQKPGKAPKLLIYYTSRLHSGVPSRFSGSGSGTDFTFTISSLQPEDIATYYCQQGNTLPYTFGQGTKVEIK | 95 % of IL6R-BF648/IL6R-L | 37 % of IL6R-BF648/IL6R-L | – | 96 % of IL6R-BF648/IL6R-L
9 | IL6R-BP110/IL6R-L (antibody, human IgG1, name in EU numbering) heavy: QVQLQESGPGLVKPSETLSLTCAVSGHSISHDHAWSWVRQPPGEGLEWIGFISYSGITNYNPSLQGRVTISRDNSKNTLYLQMNSLRAEDTAVYYCARSLARTTAMDYWGEGTLVTVSSASTKGPSVFPLAPSSKSTSGGTAALGCLVKDYFPEPVTVSWNSGALTSGVHTFPAVLQSSGLYSLSSVVTVPSSSLGTQTYICNVNHKPSNTKVDKKVEPKSCDKTHTCPPCPAPELLGGDSVFLFPPKPKDTLMISRTPEVTCVVVDVSNEDPEVKFNWYVDGVEVHNAKTKPREEQYNSTYRVVSVLTVLHQDWLNGKEYKCKVSNKALPAPIEKTISKAKGQPREPQVYTLPPSRDELTKNQVSLTCLVKGFYPSDIAVEWESNGQPENNYKTTPPVLDSDGSFFLYSKLTVDKSRWQQGNVFSCSVMHEALHNHYTQESLSLSP light: DIQMTQSPSSLSASVGDRVTITCRASQDISSYLNWYQQKPGKAPKLLIYYTSRLHSGVPSRFSGSGSGTDFTFTISSLQPEDIATYYCQQGNTLPYTFGQGTKVEIK | – | 127 % of IL6R-BF648/IL6R-L | 101 % of IL6R-BF648/IL6R-L | 127 % of IL6R-BF648/IL6R-L
